Laboratory results taken from paper PMC5749160, “Disruption of an RNA-binding hinge region abolishes LHP1-mediated epigenetic repression”.

Tests used:
Conditions in all cases: protein: recombinant; tags: N-terminal GST (pGEX-4T-1); label: 5' Cy5; single-stranded
GST-LHP1 KR23A = molecular target: T1, GST-LHP1 KR23A (Arabidopsis thaliana (Col-0 cDNA), UniProt Q946J8 1-445, R166A;K167A;R168A;K169A;R170A;K171A;K180A;K181A;K182A;R184A;K195A;R292A;K298A;K3 …); assay: EMSA; EMSA: 20 mM HEPES-KOH pH 7.5, 100 mM KCl, 0.05% NP-40, 10 nM Cy5 probe (1 uL of 100 nM + 9 uL protein), 30 min room temperature; 1.6% TBE-agarose gel
T1 sequence: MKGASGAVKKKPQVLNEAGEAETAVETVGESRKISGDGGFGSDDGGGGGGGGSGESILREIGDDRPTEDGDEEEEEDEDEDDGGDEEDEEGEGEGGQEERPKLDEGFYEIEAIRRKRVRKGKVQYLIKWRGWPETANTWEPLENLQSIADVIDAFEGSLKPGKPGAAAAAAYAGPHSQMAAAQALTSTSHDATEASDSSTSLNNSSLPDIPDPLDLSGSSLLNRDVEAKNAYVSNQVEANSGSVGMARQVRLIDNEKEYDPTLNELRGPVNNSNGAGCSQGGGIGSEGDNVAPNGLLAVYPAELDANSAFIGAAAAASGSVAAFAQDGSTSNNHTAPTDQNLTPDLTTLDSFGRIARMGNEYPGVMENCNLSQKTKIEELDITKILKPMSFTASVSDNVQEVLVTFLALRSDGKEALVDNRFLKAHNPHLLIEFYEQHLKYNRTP

GST-LHP1 KR33A = molecular target: T2, GST-LHP1 KR33A (Arabidopsis thaliana (Col-0 cDNA), UniProt Q946J8 1-445, R166A;K167A;R168A;K169A;R170A;K171A;K180A;K181A;K182A;R184A;K195A;R224A;K229A;R2 …); assay: as above
T2 sequence: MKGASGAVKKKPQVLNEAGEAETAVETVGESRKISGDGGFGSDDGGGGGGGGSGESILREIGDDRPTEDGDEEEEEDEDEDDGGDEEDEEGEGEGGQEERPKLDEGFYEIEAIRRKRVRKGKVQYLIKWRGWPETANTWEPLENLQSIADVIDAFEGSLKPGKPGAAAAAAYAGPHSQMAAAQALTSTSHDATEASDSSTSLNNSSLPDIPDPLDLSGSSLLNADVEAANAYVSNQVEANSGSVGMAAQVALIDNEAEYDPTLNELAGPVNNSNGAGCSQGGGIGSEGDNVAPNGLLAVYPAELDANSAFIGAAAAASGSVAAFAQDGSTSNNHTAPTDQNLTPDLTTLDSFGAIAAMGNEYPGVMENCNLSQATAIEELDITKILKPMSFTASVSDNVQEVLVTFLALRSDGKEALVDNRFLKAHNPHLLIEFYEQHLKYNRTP

GST-LHP1 W129C = molecular target: T3, GST-LHP1 W129C (Arabidopsis thaliana (Col-0 cDNA), UniProt Q946J8 1-445, W129C); assay: EMSA; wild-type RNA-binding activity retained; EMSA: 20 mM HEPES-KOH pH 7.5, 100 mM KCl, 0.05% NP-40, 10 nM Cy5 probe (1 uL of 100 nM + 9 uL protein), 30 min room temperature; 1.6% TBE-agarose gel
T3 sequence: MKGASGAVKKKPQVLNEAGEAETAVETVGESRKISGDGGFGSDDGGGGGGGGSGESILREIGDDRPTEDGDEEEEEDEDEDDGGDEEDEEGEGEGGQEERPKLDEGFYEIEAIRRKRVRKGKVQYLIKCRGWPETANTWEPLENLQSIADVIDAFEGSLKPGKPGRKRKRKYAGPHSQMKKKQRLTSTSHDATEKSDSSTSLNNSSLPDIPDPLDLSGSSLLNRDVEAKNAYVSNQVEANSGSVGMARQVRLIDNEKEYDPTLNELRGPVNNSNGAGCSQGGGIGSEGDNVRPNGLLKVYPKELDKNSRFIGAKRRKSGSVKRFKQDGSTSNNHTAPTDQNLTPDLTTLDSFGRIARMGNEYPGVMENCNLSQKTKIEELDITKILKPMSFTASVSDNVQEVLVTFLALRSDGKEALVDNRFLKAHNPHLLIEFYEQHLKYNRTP

**Q.** Does CUCCUCCGGCGAUAAGUACGCCUUUUCCUUACCUGGGUUU (ssRNA) [FLC 40-nt ssRNA] bind (GST-LHP1 KR23A)?
**A.** Result: no binding

**Q.** Does CUCCUCCGGCGAUAAGUACGCCUUUUCCUUACCUGGGUUU (ssRNA) [FLC 40-nt ssRNA] bind (GST-LHP1 KR33A)?
**A.** Result: no binding

**Q.** Does CUCCUCCGGCGAUAAGUACGCCUUUUCCUUACCUGGGUUU (ssRNA) [FLC 40-nt ssRNA] bind (GST-LHP1 W129C)?
**A.** Result: binds
